System: Escherichia coli TOP10
Assay: shrunken log2 fold change of peptide-encoding DNA abundance (4.5 h post-induction vs induction); higher = less antimicrobial activity (less host growth inhibition)
Details: time post-induction: 4.5 h; library: site-saturation at positions 5, 18, 19, 20
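Further: peptides expressed intracellularly from a pBAD plasmid library in pooled LB shake-flask culture, induced with 0.3% L-arabinose, DNA abundance read by NGS, three biological replicates, DESeq2 with apeglm shrinkage.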

Sequence	shrunken log2 fold change
RRIRYRPPRLPRPRPRPACYPRP	-0.553
RRIRSRPPRLPRPRPRPQSIPRP	-0.263
RRIRKRPPRLPRPRPRPHNFPRP	-0.0511
RRIRARPPRLPRPRPRPHETPRP	0.062
RRIRFRPPRLPRPRPRPAKIPRP	0.117
RRIRIRPPRLPRPRPRPSLKPRP	-0.154
RRIRVRPPRLPRPRPRPKAYPRP	0.0199
RRIRMRPPRLPRPRPRPINMPRP	-0.0607
RRIRHRPPRLPRPRPRPSHNPRP	-0.433
RRIRWRPPRLPRPRPRPFDIPRP	-0.838
RRIRERPPRLPRPRPRPLPLPRP	-0.0754
RRIRPRPPRLPRPRPRPSQNPRP	-0.107
RRIRYRPPRLPRPRPRPVFLPRP	-0.538
RRIRCRPPRLPRPRPRPPSAPRP	0.345
RRIRERPPRLPRPRPRPTKWPRP	0.155
RRIRQRPPRLPRPRPRPDFFPRP	0.00508
RRIRRRPPRLPRPRPRPRDSPRP	-0.0748
RRIRYRPPRLPRPRPRPEDRPRP	0.119
RRIRNRPPRLPRPRPRPYLTPRP	-0.332
RRIRWRPPRLPRPRPRPPAFPRP	0.204
RRIRYRPPRLPRPRPRPDKYPRP	0.0363
RRIRKRPPRLPRPRPRPSWRPRP	0.211
RRIRPRPPRLPRPRPRPEREPRP	0.49
RRIRVRPPRLPRPRPRPRSKPRP	-0.108
RRIRYRPPRLPRPRPRPKAMPRP	-0.0317

Sequence	shrunken log2 fold change
RRIRWRPPRLPRPRPRPALYPRP	0.232
RRIRFRPPRLPRPRPRPTEAPRP	0.332
RRIRERPPRLPRPRPRPCLAPRP	-0.526
RRIRYRPPRLPRPRPRPKTQPRP	0.0853
RRIRSRPPRLPRPRPRPFSYPRP	-0.0241
RRIRSRPPRLPRPRPRPECDPRP	0.262
RRIRIRPPRLPRPRPRPVHEPRP	-0.139
RRIRYRPPRLPRPRPRPPYPPRP	-0.257
RRIRVRPPRLPRPRPRPNHVPRP	-0.3
RRIRLRPPRLPRPRPRPMAFPRP	-0.127
RRIRNRPPRLPRPRPRPKRLPRP	-0.0121
RRIRARPPRLPRPRPRPTKRPRP	0.247
RRIRNRPPRLPRPRPRPFARPRP	-0.113
RRIRIRPPRLPRPRPRPEEWPRP	-0.128
RRIRFRPPRLPRPRPRPWALPRP	0.00634
RRIRPRPPRLPRPRPRPKVLPRP	0.038
RRIRMRPPRLPRPRPRPYRHPRP	0.0311
RRIRGRPPRLPRPRPRPHMFPRP	0.445
RRIRMRPPRLPRPRPRPSVLPRP	0.0464
RRIRDRPPRLPRPRPRPAPGPRP	0.699
RRIRLRPPRLPRPRPRPFYFPRP	-0.432
RRIRARPPRLPRPRPRPFGGPRP	0.0726
RRIRSRPPRLPRPRPRPWYFPRP	-0.85
RRIRARPPRLPRPRPRPGTMPRP	0.351
RRIRYRPPRLPRPRPRPYTPPRP	-1.28

Sequence	shrunken log2 fold change
RRIRWRPPRLPRPRPRPIHTPRP	-0.275
RRIRIRPPRLPRPRPRPNSAPRP	-0.234
RRIRVRPPRLPRPRPRPTDDPRP	-0.183
RRIRYRPPRLPRPRPRPPLYPRP	0.755
RRIRNRPPRLPRPRPRPPEDPRP	0.174
RRIRTRPPRLPRPRPRPNASPRP	-0.0378
RRIRHRPPRLPRPRPRPCLVPRP	0.214
RRIRFRPPRLPRPRPRPSWQPRP	-0.149
RRIRIRPPRLPRPRPRPHVQPRP	-0.131
RRIRYRPPRLPRPRPRPWKKPRP	0.00843
RRIRYRPPRLPRPRPRPMVIPRP	-0.0231
RRIRSRPPRLPRPRPRPIENPRP	-0.00961
RRIRFRPPRLPRPRPRPVGDPRP	0.535
RRIRHRPPRLPRPRPRPKFNPRP	-0.437
RRIRTRPPRLPRPRPRPMREPRP	0.864
RRIRCRPPRLPRPRPRPGWAPRP	0.606
RRIRCRPPRLPRPRPRPFYFPRP	-0.593
RRIRARPPRLPRPRPRPESHPRP	1.04
RRIRFRPPRLPRPRPRPVNGPRP	-0.746
RRIRRRPPRLPRPRPRPITRPRP	0.0299
RRIRSRPPRLPRPRPRPRVEPRP	0.183
RRIRDRPPRLPRPRPRPVDHPRP	-0.173
RRIRDRPPRLPRPRPRPCLKPRP	-0.000218
RRIRHRPPRLPRPRPRPQSLPRP	-0.00783
RRIRDRPPRLPRPRPRPVAVPRP	0.453

Sequence	shrunken log2 fold change
RRIRCRPPRLPRPRPRPATCPRP	-0.0745
RRIRHRPPRLPRPRPRPMRRPRP	0.00585
RRIRGRPPRLPRPRPRPWGRPRP	0.413
RRIRVRPPRLPRPRPRPSFIPRP	-0.749
RRIRPRPPRLPRPRPRPDNSPRP	-0.228
RRIRERPPRLPRPRPRPPNSPRP	-0.148
RRIRCRPPRLPRPRPRPPNWPRP	1.17
RRIRRRPPRLPRPRPRPGPVPRP	0.332
RRIRHRPPRLPRPRPRPVRHPRP	0.251
RRIRYRPPRLPRPRPRPSRGPRP	-0.0776
RRIRARPPRLPRPRPRPYFCPRP	-0.346
RRIRLRPPRLPRPRPRPCLGPRP	-0.25
RRIRERPPRLPRPRPRPPLQPRP	-0.176
RRIRYRPPRLPRPRPRPVQSPRP	-0.017
RRIRRRPPRLPRPRPRPVDCPRP	0.12
RRIRFRPPRLPRPRPRPWNWPRP	0.0169
RRIRARPPRLPRPRPRPHDRPRP	0.128
RRIRGRPPRLPRPRPRPMARPRP	0.318
RRIRNRPPRLPRPRPRPWADPRP	-0.124
RRIRSRPPRLPRPRPRPVCKPRP	-0.0891
RRIRVRPPRLPRPRPRPLYQPRP	-0.0431
RRIRDRPPRLPRPRPRPYFMPRP	-0.735
RRIRGRPPRLPRPRPRPQYEPRP	0.0238
RRIRPRPPRLPRPRPRPCWMPRP	-0.126
RRIRSRPPRLPRPRPRPTWWPRP	0.422

Sequence	shrunken log2 fold change
RRIRKRPPRLPRPRPRPHEQPRP	-0.00968
RRIRHRPPRLPRPRPRPTAQPRP	-0.054
RRIRSRPPRLPRPRPRPFQGPRP	-0.0569
RRIRHRPPRLPRPRPRPNLKPRP	-0.465
RRIRFRPPRLPRPRPRPKVTPRP	-0.2
RRIRQRPPRLPRPRPRPVYLPRP	-0.206
RRIRRRPPRLPRPRPRPHNWPRP	-0.131
RRIRPRPPRLPRPRPRPHEGPRP	0.0172
RRIRARPPRLPRPRPRPRFDPRP	0.236
RRIRIRPPRLPRPRPRPFWIPRP	-0.193
RRIRCRPPRLPRPRPRPYTEPRP	-1.42
RRIRCRPPRLPRPRPRPQRFPRP	-0.0259
RRIRGRPPRLPRPRPRPRVHPRP	0.666
RRIRPRPPRLPRPRPRPRNFPRP	0.192
RRIRERPPRLPRPRPRPDCNPRP	-0.395
RRIRKRPPRLPRPRPRPQDRPRP	0.201
RRIRYRPPRLPRPRPRPMQSPRP	2.85
RRIRKRPPRLPRPRPRPSRWPRP	0.639
RRIRIRPPRLPRPRPRPAHDPRP	0.0246
RRIRQRPPRLPRPRPRPWRQPRP	0.029
RRIRRRPPRLPRPRPRPGFPPRP	3.88
RRIRNRPPRLPRPRPRPMYRPRP	-0.473
RRIRPRPPRLPRPRPRPPTSPRP	0.276
RRIRHRPPRLPRPRPRPGTYPRP	-0.0156
RRIRQRPPRLPRPRPRPMKFPRP	-0.21
